Results as given in patent US20180087053, “ANTI-CANCER RNA APTAMERS” (CITY OF HOPE, published 2018).

Molecular target: mortalin (mitochondrial Hsp70, mHSP70) on PANC-1 cell surface (Homo sapiens, UniProt P38646 P38646:47-679)
Assay: flow; intact PANC-1 cells, 37 C, 15.6-500 nM aptamer; target identified as mortalin by pulldown/MS
Conditions: tags: endogenous, label: Cy3 (flow) or 3'-biotin (SPR, pulldown), multi-stem-loop (Mfold)
Protocol: FIG. 1A-1G: Showing the secondary structure and pancreatic cancer specific internalization (FIG. 1A). Cartoon of the secondary structures of P19 (SEQ ID NO:2) and P1 (SEQ ID NO:4) are shown; aptamers were selected from randomized N40 RNA libraries and were predicted using the Mfold program. (FIG. 1B) Cy3-labeled RNAs were tested for binding to PANC-1 and NC as control cells by flow cytometry. Data represent the average of three replicated. Initial RNA library pool is shown as Library, P1 and P19. Cy3 labeled P19 and P1 incubation in. (FIG. 1C) Cy3-labeled RNAs (100 nM) was tested for internalization by confocal in negative cells, PANC-1 and MIA PaCa-2: Cy3-labeled RNA. (FIG. 1D) Cy3-labeled RNAs (100 nM) was tested for the internalization in primary pancreatic epithelial cells; Cy3-labeled RNA. (FIG. 1E) The representative images by histopathological screen in pancreatic cancer and normal pancreas. The samples were stained with Cy3 labeled aptamer P1 and P19 respectively and examined at 100× magnification. White arrow indicate that P19 binding to cancer region. Cy3-labeled RNA. (FIG. 1F) A total of 72 patients of pancreatic adenocarcinoma had undergone. The Correlation coefficient between P1 and P19 is 0.891. […] Median fluorescence intensity (MFI) was measured and calculated using one site binding non-linear curve regression with a Graph Pad Prism.

Sequence of mortalin (mitochondrial Hsp70, mHSP70) on PANC-1 cell surface (P38646 47-679, one chain of several): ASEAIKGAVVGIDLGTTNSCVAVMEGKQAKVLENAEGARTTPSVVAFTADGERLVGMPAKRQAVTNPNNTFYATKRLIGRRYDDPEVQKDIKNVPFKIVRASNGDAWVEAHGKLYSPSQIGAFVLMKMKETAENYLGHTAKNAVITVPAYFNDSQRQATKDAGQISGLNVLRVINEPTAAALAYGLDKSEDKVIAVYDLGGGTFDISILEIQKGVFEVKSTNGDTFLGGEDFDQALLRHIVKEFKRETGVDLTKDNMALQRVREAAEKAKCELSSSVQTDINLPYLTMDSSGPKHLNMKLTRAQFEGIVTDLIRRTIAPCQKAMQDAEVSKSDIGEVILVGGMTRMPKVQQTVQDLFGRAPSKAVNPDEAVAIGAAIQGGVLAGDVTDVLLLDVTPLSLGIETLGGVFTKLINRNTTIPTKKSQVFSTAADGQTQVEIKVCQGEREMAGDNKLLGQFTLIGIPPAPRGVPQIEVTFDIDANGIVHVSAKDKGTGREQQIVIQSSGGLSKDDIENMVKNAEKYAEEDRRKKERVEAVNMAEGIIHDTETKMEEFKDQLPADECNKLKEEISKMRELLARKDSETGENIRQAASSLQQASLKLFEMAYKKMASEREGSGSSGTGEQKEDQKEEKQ

B1: P19 (ssRNA)
RNA: GGGAGACAAGAAUAAACGCUCAAUGGCGAAUGCCCGCCUAAUAGGGCGUUAUGACUUGUUGAGUUCGACAGGAGGCUCACAACAGGC
modifications: 2'-F pyrimidines
B1 was tested, and the Kd was 13.1 nM.
